Data from the supplement of paper PMC9112550, “Optimization of the antimicrobial peptide Bac7 by deep mutational scanning” (BMC Biology, 2022).

Test system: Escherichia coli TOP10
Test: shrunken log2 fold change of peptide-encoding DNA abundance (4.5 h post-induction vs induction); higher = less antimicrobial activity (less host growth inhibition)
Conditions: time post-induction: 4.5 h; library: site-saturation at positions 5, 18, 19, 20
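Further: peptides expressed intracellularly from a pBAD plasmid library in pooled LB shake-flask culture, induced with 0.3% L-arabinose, DNA abundance read by NGS, three biological replicates, DESeq2 with apeglm shrinkage.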

Sequence | shrunken log2 fold change
RRIRYRPPRLPRPRPRPAWWPRP | 0.365
RRIRLRPPRLPRPRPRPWVPPRP | -0.569
RRIRARPPRLPRPRPRPSLKPRP | -0.0764
RRIRYRPPRLPRPRPRPGGDPRP | 0.137
RRIRNRPPRLPRPRPRPWIEPRP | -0.042
RRIRSRPPRLPRPRPRPFLFPRP | -0.329
RRIRERPPRLPRPRPRPKQQPRP | -0.0499
RRIRCRPPRLPRPRPRPTRCPRP | 0.236
RRIRVRPPRLPRPRPRPTRAPRP | 0.665
RRIRERPPRLPRPRPRPDMEPRP | -0.201
RRIRVRPPRLPRPRPRPSFYPRP | -0.872
RRIRQRPPRLPRPRPRPKHDPRP | -0.121
RRIRERPPRLPRPRPRPIWHPRP | -0.0406
RRIRWRPPRLPRPRPRPFMCPRP | -0.245
RRIRMRPPRLPRPRPRPAPVPRP | 0.764
RRIRNRPPRLPRPRPRPTLRPRP | 0.334
RRIRQRPPRLPRPRPRPMHRPRP | -0.0558
RRIRTRPPRLPRPRPRPAHYPRP | -0.227
RRIRHRPPRLPRPRPRPASGPRP | 0.368
RRIRTRPPRLPRPRPRPFTCPRP | 0.0121
RRIRNRPPRLPRPRPRPEPMPRP | 0.132
RRIRKRPPRLPRPRPRPVISPRP | -0.00841
RRIRIRPPRLPRPRPRPMLQPRP | -0.452
RRIRVRPPRLPRPRPRPWQCPRP | -0.00264
RRIRFRPPRLPRPRPRPAELPRP | 0.281

Sequence | shrunken log2 fold change
RRIRQRPPRLPRPRPRPNHVPRP | 0.0349
RRIRERPPRLPRPRPRPKNTPRP | -0.439
RRIRERPPRLPRPRPRPYWTPRP | -0.0954
RRIRGRPPRLPRPRPRPYKEPRP | -0.375
RRIRQRPPRLPRPRPRPWDCPRP | -0.383
RRIRYRPPRLPRPRPRPAGGPRP | 0.148
RRIRFRPPRLPRPRPRPFRYPRP | -0.151
RRIRLRPPRLPRPRPRPYLDPRP | 0.0027
RRIRERPPRLPRPRPRPNYPPRP | -0.509
RRIRCRPPRLPRPRPRPAFLPRP | -0.214
RRIRERPPRLPRPRPRPFIQPRP | -0.176
RRIRSRPPRLPRPRPRPEIRPRP | -0.0706
RRIRSRPPRLPRPRPRPAITPRP | -0.0725
RRIRVRPPRLPRPRPRPREPPRP | 0.947
RRIRNRPPRLPRPRPRPWRKPRP | -0.0392
RRIRERPPRLPRPRPRPVTHPRP | -0.194
RRIRVRPPRLPRPRPRPRGRPRP | 0.197
RRIRVRPPRLPRPRPRPLSFPRP | -0.426
RRIRDRPPRLPRPRPRPPEPPRP | 0.84
RRIRMRPPRLPRPRPRPNHDPRP | -0.261
RRIRVRPPRLPRPRPRPTHPPRP | 0.378
RRIRDRPPRLPRPRPRPKDKPRP | 0.0636
RRIRYRPPRLPRPRPRPKQQPRP | -0.0891
RRIRPRPPRLPRPRPRPQAPPRP | -0.0721
RRIRIRPPRLPRPRPRPCGGPRP | 0.188
